# In publication PMC12905440:
# Key:
# Ago1 (RISC) [1] = biological target: Ago1 (RISC) (UniProt A1Z9J5); experiment: RBNS; conditions: RBNS: 20 mM HEPES-KOH pH 7.9, 100 mM KOAc, 3.5 mM Mg(OAc)2, 0.05% CHAPS, 2 mM DTT, 8% glycerol, BSA, tRNA, 25 C, 2 h, filter binding: 25 mM HEPES-KOH pH 7.9 …
# PUM2 (Homo sapiens) = biological target: T1, PUM2 (Homo sapiens) (UniProt Q8TB72); experiment: RBNS; conditions: re-analysis of published RBNS data (ref 38); RBNS: 20 mM HEPES-KOH pH 7.9, 100 mM KOAc, 3.5 mM Mg(OAc)2, 0.05% CHAPS, 2 mM DTT, 8% glycerol, BSA, tRNA, 25 C, 2 h; filter binding: 25 mM HEPES-KOH pH 7.9 …
# T1 sequence: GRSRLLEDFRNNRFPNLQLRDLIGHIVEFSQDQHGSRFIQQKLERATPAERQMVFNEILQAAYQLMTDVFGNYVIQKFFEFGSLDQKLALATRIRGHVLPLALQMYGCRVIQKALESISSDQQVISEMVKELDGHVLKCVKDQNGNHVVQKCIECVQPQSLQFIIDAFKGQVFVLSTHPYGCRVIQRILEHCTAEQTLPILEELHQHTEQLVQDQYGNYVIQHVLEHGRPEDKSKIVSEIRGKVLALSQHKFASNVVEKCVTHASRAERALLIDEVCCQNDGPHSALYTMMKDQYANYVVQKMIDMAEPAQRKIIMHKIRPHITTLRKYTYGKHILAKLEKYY
# Ago1 (RISC) [2] = biological target: Ago1 (RISC) (UniProt A1Z9J5); experiment: double-filter binding; conditions: let-7 guide, RBNS: 20 mM HEPES-KOH pH 7.9, 100 mM KOAc, 3.5 mM Mg(OAc)2, 0.05% CHAPS, 2 mM DTT, 8% glycerol, BSA, tRNA, 25 C, 2 h, filter binding: 25 mM HEPES-KOH pH 7.9 …
# Sequence of Ago1 (RISC) (A1Z9J5 entry or part of it): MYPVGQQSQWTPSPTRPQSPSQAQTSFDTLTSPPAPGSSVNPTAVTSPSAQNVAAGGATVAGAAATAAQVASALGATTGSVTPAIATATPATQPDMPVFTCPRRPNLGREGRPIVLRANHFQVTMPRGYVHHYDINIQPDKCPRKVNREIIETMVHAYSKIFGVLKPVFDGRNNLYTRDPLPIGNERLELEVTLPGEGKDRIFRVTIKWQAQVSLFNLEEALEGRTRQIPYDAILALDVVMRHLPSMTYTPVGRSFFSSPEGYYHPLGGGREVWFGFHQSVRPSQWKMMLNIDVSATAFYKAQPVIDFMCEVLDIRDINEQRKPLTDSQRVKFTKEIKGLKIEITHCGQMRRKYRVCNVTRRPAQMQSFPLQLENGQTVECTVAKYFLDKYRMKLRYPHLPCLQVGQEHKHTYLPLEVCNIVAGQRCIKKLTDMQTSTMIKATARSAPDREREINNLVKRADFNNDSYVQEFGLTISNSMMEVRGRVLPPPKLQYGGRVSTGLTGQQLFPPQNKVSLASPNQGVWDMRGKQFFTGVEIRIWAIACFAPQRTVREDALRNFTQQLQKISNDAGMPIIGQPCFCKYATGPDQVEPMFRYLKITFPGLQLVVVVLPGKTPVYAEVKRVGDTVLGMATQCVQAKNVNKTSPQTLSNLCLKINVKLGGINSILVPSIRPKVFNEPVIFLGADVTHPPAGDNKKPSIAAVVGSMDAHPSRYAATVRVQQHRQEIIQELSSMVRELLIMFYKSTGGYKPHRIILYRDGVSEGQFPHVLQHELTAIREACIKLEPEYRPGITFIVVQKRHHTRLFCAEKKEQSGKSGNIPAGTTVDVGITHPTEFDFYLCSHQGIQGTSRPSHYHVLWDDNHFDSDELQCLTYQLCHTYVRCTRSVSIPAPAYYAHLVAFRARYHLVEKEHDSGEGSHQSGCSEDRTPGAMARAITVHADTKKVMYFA
substance,measurement,setting,value
"CUACCUUB / UGAGGUAGUAGGUUGUAUAGU [let-7 / 7mer-m8,w2]",Kd,Ago1 (RISC) [1]; let-7 guide,0.278 nM
"UCCGUCUB / UGGACGGAGAACUGAUAAGGGC [miR-184 / 7mer-m8,w2]",Kd,Ago1 (RISC) [1]; miR-184 guide,0.154 nM
"UGAUCUUB / UGAGAUCAUUUUGAAAGCUGAUU [bantam / 7mer-m8,w2]",Kd,Ago1 (RISC) [1]; bantam guide,0.866 nM
UGUAUAUA [PUM consensus site],Kd,PUM2 (Homo sapiens),0.12 nM
let-7 guide / fully complementary target (Fig 1c),Kd,Ago1 (RISC) [2],0.002 nM
let-7 guide / seed-matching target (Fig 1c),Kd,Ago1 (RISC) [2]; 5' 32P target,0.005 nM
